Measurements published in PMC4288174 (Nucleic Acids Research, 2014).

Target: Recombinant hemagglutinin-tagged full-length CSB (human, UniProt Q03468 1-1493)
Test: pull-down; ΔN-SNM1A (500 ng) with or without HA-CSB (500 ng) and α-HA magnetic beads; 20 mM HEPES pH 7.9, 4 mM MgCl2, 0.05 mM ATP, 40 μg/ml BSA, 1 mM DTT, 4°C, 2 h; silver stain
Conditions: both partners purified

Recombinant hemagglutinin-tagged full-length CSB, sequence (Q03468 whole entry): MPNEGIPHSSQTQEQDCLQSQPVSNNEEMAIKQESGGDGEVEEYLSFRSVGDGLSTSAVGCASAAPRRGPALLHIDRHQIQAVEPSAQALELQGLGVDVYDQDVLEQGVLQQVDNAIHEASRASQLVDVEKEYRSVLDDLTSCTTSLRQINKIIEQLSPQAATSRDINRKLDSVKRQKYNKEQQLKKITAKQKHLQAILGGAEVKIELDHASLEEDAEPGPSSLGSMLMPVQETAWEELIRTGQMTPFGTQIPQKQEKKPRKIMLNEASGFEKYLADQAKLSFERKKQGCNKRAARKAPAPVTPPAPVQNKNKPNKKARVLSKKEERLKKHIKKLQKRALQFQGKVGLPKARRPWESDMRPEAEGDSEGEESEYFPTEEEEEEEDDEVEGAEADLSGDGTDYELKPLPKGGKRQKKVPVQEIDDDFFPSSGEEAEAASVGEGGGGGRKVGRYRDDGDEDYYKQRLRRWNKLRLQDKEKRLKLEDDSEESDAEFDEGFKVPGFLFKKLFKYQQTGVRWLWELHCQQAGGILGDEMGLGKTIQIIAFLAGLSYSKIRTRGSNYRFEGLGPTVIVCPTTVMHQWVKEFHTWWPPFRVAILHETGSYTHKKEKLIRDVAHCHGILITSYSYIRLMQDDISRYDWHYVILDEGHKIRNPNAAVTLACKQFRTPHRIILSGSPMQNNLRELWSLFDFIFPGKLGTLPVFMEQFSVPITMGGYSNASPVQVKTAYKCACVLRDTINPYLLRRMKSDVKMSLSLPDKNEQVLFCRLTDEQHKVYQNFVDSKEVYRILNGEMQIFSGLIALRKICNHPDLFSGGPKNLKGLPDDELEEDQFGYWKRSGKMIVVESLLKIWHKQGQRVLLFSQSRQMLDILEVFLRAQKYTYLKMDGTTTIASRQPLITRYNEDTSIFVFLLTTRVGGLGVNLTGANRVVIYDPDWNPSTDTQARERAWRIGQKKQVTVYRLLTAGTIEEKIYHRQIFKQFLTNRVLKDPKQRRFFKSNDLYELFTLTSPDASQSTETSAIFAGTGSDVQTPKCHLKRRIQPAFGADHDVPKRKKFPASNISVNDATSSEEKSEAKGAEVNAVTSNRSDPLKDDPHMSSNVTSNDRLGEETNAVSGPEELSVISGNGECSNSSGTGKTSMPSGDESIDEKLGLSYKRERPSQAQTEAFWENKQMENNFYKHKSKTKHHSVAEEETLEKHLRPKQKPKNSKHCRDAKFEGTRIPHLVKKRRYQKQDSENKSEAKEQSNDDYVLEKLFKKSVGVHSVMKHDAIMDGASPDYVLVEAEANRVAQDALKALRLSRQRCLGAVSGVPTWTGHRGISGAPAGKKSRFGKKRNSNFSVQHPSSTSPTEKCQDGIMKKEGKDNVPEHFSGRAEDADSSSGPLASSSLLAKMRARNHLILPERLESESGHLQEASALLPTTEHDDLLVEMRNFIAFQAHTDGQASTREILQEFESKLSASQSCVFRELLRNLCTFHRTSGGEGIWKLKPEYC

binding result: binds
B1: SNM1A nuclease fragment consisting of residues 608 to 1040 (domain or fragment, human, UniProt Q6PJP8 608-1040, looked up)
chain: SDLEFDASTLHESQLSVELSSERSQRQKKRCRKSNSLQEGACQKRSDHLINTESEAVNLSKVKVFTKSAHGGLQRGNKKIPESSNVGGSRKKTCPFYKKIPGTGFTVDAFQYGVVEGCTAYFLTHFHSDHYAGLSKHFTFPVYCSEITGNLLKNKLHVQEQYIHPLPLDTECIVNGVKVVLLDANHCPGAVMILFYLPNGTVILHTGDFRADPSMERSLLADQKVHMLYLDTTYCSPEYTFPSQQEVIRFAINTAFEAVTLNPHALVVCGTYSIGKEKVFLAIADVLGSKVGMSQEKYKTLQCLNIPEINSLITTDMCSSLVHLLPMMQINFKGLQSHLKKCGGKYNQILAFRPTGWTHSNKFTRIADVIPQTKGNISIYGIPYSEHSSYLEMKRFVQWLKPQKIIPTVNVGTWKSRSTMEKYFREWKLEAGY
